Reference: the supplement of paper PMC9732359
± gives the uncertainty stated by the source.

Assay: protein stability index of a GFP-peptide fusion (yeast GPS) (PSI 1-4); higher = more stable; sorted into four equal gates, so the index is relative within each strain
Procedure, shortened: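 The protein stability index of a peptide was calculated by multiplying its read frequency in each gate by that gate's number and adding the products. The peptides were tiled 17-residue stretches of yeast proteins, fused downstream of GFP on a Cherry-expressing plasmid and carried in yeast as a pooled library. Mid-log cultures in leucine-free medium were sorted into four equal gates by GFP/Cherry ratio, and each gate's plasmids were PCR-amplified and Illumina-sequenced.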

| Sequence | protein stability index (doa10∆) | protein stability index (pdr5∆) | protein stability index (san1∆) | protein stability index (ubr1∆) |
| --- | --- | --- | --- | --- |
| TGHLFLKIIHTSVWAGQ [PRP8] | 1.31 ± 0.06 | 1.31 ± 0.056 | 1.19 ± 0.097 | 1.28 ± 0.051 |
| SDAKEQHQSLSRSSSKN [ESC2] | 2.85 ± 0.14 | 3.21 ± 0.14 | 3.26 ± 0.074 | 3.27 ± 0.11 |
| TTSYIKEQENITIQDLL [DPB4] | 3.09 ± 0.19 | 2.83 ± 0.17 | 2.86 ± 0.082 | 3.02 ± 0.27 |
| ETVAKSKNAERKWAARA [RPS8A] | 3.184 ± 0.028 | 3.362 ± 0.027 | 3.196 ± 0.018 | 3.315 ± 0.021 |
| INIQKYNNNTIRKLLEK [CSI1] | 2.85 ± 0.25 | 2.51 ± 0.17 |  | 2.54 ± 0.11 |
| AHNPELERYVKRCMDDL [RPO31] | 3.33 ± 0.062 | 3.45 ± 0.062 | 3.41 ± 0.037 | 3.35 ± 0.04 |
| AFPHLYNSRPRSVRIPW [PRP8] | 2.94 ± 0.1 | 2.45 ± 0.084 | 1.7 ± 0.13 | 2.59 ± 0.066 |
| SATLPNYEDVGRFLRVP [BRR2] | 2.8 ± 0.087 | 3.1 ± 0.062 | 3.04 ± 0.048 | 3.01 ± 0.075 |
| RTQPWSIMPDLYFYRNP [RPS0B] | 2.55 ± 0.051 | 2.85 ± 0.056 | 2.85 ± 0.043 | 2.6 ± 0.055 |
| LKKKYQIILDRFAPDNQ [SIR3] | 1.9 ± 0.09 | 1.85 ± 0.082 | 1.68 ± 0.13 | 1.74 ± 0.062 |
| IPSAAFNFFEPIKEAKI [YMR129W/POM152] | 1.98 ± 0.039 | 2.27 ± 0.037 | 2.15 ± 0.044 | 2.44 ± 0.025 |
| HLLVKQGDGLLTKLQKY [RPN7] | 2.97 ± 0.13 | 2.44 ± 0.1 | 3.19 ± 0.12 | 3 ± 0.16 |
| NFENDNENNSNGGEDTS [REC8] | 2.93 ± 0.2 | 2.64 ± 0.27 | 2.65 ± 0.16 | 2.81 ± 0.16 |
| NLQKIDKDSEELDSKTR [MED4] | 2.73 ± 0.091 | 2.98 ± 0.071 | 2.94 ± 0.078 | 3.09 ± 0.053 |
| VPKSIAKTLTYPEVVTP [RPO21] | 2.51 ± 0.05 | 2.76 ± 0.044 | 2.39 ± 0.039 | 2.62 ± 0.047 |
| GANPRVLSTFTAEFGKI [RPN10] | 2.14 ± 0.11 | 2.08 ± 0.1 | 2.12 ± 0.2 | 2.18 ± 0.073 |
| EDLVDRIENPEKYAAAA [RPP0] | 3.05 ± 0.078 | 3.28 ± 0.099 | 2.93 ± 0.054 | 3.09 ± 0.057 |
| LKKSEEIINNKTSSQTS [YMR153W/NUP53] | 3.08 ± 0.12 | 3.4 ± 0.15 | 3.03 ± 0.13 | 3.19 ± 0.069 |
| EDTNLAAIHAKRVTIQK [HHT1] | 2.88 ± 0.078 | 3.04 ± 0.099 | 2.97 ± 0.059 | 2.92 ± 0.056 |
| EECSGRRWNKLCTLNDS [YGL100W/SEH1] | 2.99 ± 0.051 | 3.17 ± 0.053 | 2.82 ± 0.05 | 2.78 ± 0.041 |
| CFVHRYKDVSDLIRSES [IRR1] | 2.67 ± 0.082 | 2.7 ± 0.061 | 2.89 ± 0.056 | 2.89 ± 0.06 |
| DKFFTLSAENIEERLVA [SCL1] | 3.01 ± 0.074 | 3.01 ± 0.084 | 3.06 ± 0.082 | 3.02 ± 0.069 |
| TPKYRLVVRFTNKDIIC [RPL5] | 1.75 ± 0.078 | 1.64 ± 0.11 | 1.17 ± 0.2 | 1.36 ± 0.071 |
| NPIDIKRRFGELMDRTG [RPP1] | 3.08 ± 0.12 | 3.19 ± 0.18 | 2.26 ± 0.26 | 2.9 ± 0.059 |
| RYNVEKVKRLMDFLEED [NSL1] | 2.08 ± 0.098 | 1.26 ± 0.16 |  | 2.25 ± 0.19 |
| FLQKFEIAFHLTLIFYD [YML103C/NUP188] | 1.49 ± 0.083 | 1.46 ± 0.044 | 1.41 ± 0.12 | 1.35 ± 0.052 |
| SEYMVFGKLAFPTRLGQ [YJL039C/NUP192] | 3.01 ± 0.073 | 2.52 ± 0.062 | 2.75 ± 0.067 | 2.15 ± 0.059 |

| Sequence | protein stability index (doa10∆) | protein stability index (pdr5∆) | protein stability index (san1∆) | protein stability index (ubr1∆) |
| --- | --- | --- | --- | --- |
| FNIIREFRSAAGQLALD [YDL116W/NUP84] | 2.92 ± 0.12 | 3.16 ± 0.12 | 2.94 ± 0.076 | 3.25 ± 0.087 |
| ELIVSEEIPINSSEQES [SIR3] | 2.28 ± 0.054 | 2.24 ± 0.051 | 2.82 ± 0.053 | 2.18 ± 0.037 |
| SKVQFDAKTSYPNEVLK [REC8] | 2.77 ± 0.05 | 3.08 ± 0.072 | 3.06 ± 0.059 | 3.04 ± 0.067 |
| IIQNAQRDAVTLFCCLL [RPO21] | 2.88 ± 0.053 | 2.54 ± 0.055 | 2.53 ± 0.051 | 2.44 ± 0.046 |
| KARAKKTKKEKGPNEEE [RPN2] | 3.45 ± 0.22 | 3.37 ± 0.15 | 3.43 ± 0.064 | 3.15 ± 0.18 |
| HVRCGTAFALGIACAGK [RPN2] | 1.27 ± 0.081 | 1.58 ± 0.13 | 1.46 ± 0.23 | 1.53 ± 0.076 |
| PKSGIDIFVYLTYDKDL [MTR3] | 1.9 ± 0.062 | 1.58 ± 0.052 | 1.78 ± 0.11 | 1.7 ± 0.053 |
| KVIPYSTFRLNLSVTSP [RPO21] | 1.67 ± 0.065 | 1.53 ± 0.075 | 1.14 ± 0.24 | 1.97 ± 0.13 |
| IIKERALLSKVKWVHMI [SNF2] | 1.37 ± 0.059 | 1.23 ± 0.061 | 1.34 ± 0.088 | 1.18 ± 0.042 |
| TPSLPIAPPVAPHDSEA [SNF5] | 2.6 ± 0.07 | 2.48 ± 0.074 | 3.23 ± 0.064 | 2.52 ± 0.066 |
| DIYKSHLDNSKSVFSSA [RPN1] | 2.69 ± 0.056 | 2.77 ± 0.041 | 2.67 ± 0.051 | 2.66 ± 0.063 |
| HHRDSNFPDEDDDDSRK [SKP1] | 3 ± 0.18 | 3.55 ± 0.17 | 3.07 ± 0.14 | 3.5 ± 0.18 |
| TYEIICDQTKSVPLMIN [RRP43] | 1.66 ± 0.073 | 2.3 ± 0.11 | 1.49 ± 0.11 | 1.55 ± 0.069 |
| WSCIVVENWIIDDKGVL [ITC1] | 2.18 ± 0.058 | 2.72 ± 0.08 | 2.71 ± 0.12 | 2.95 ± 0.063 |
| KICSSEMINEQKLPQYI [RGR1] | 3.02 ± 0.11 | 2.9 ± 0.13 | 3.01 ± 0.15 | 2.98 ± 0.1 |
| EILTSVDVLGTHSQTGT [SIR4] | 2.93 ± 0.069 | 2.76 ± 0.063 | 2.87 ± 0.067 | 3.07 ± 0.037 |
| VIWSEDNDEKLIIRCRV [RPO21] | 3.34 ± 0.15 | 2.96 ± 0.19 | 3.53 ± 0.088 | 2.84 ± 0.19 |
| PQEESVSPNISSASPSA [SIR3] | 2.99 ± 0.048 | 3.15 ± 0.046 | 3.01 ± 0.034 | 3.03 ± 0.028 |
| SLPEFFTNRIPSKTPEV [SWI3] | 2.56 ± 0.066 | 2.53 ± 0.054 | 2.65 ± 0.062 | 2.66 ± 0.059 |
| GTQLATLKNRGLPLGIA [YGR119C/NUP57] | 2.04 ± 0.067 | 2.29 ± 0.059 | 2.57 ± 0.1 | 2.23 ± 0.031 |
| WCCRSGSAADTQAIADI [PRE3] | 2.89 ± 0.12 | 3.03 ± 0.099 | 2.85 ± 0.11 | 2.93 ± 0.077 |
| DYFFYFLVLYDVKTAEE [NUT1] | 1.52 ± 0.043 | 1.46 ± 0.044 | 1.62 ± 0.094 | 1.76 ± 0.04 |
| RQELQMQRQQQGISGSQ [SNF2] | 2.65 ± 0.049 | 2.95 ± 0.046 | 2.94 ± 0.042 | 2.9 ± 0.041 |
| DLESMGLTQLYKKSTEN [MED7] | 2.9 ± 0.071 | 3.13 ± 0.067 | 2.81 ± 0.067 | 2.9 ± 0.047 |
| HEILSEPAIEEENGDSI [MED1] | 2.98 ± 0.17 | 3.11 ± 0.12 | 2.99 ± 0.19 | 3.26 ± 0.14 |
| MKTVQSPMGAQPSYNSA [GAL11] | 3.37 ± 0.26 | 2.91 ± 0.1 | 2.56 ± 0.21 | 2.65 ± 0.081 |
